Read-outs that look alike come from different tables or passages of the source.

Experiment [1] addresses human nerve growth factor (human) (UniProt P01138).
Experiment [2] has the same target. Kind of experiment: BIAcore SPR, Fab over immobilised human NGF.
Experiment [3] concerns the target rat nerve growth factor (rat) (UniProt P25427). Kind of experiment: cell-based or functional assay.
The target in experiment [4] is human nerve growth factor (human) (UniProt P01138). Kind of experiment: cell-based or functional assay.
Experiment [5] shares this target. The experiment can be described thus: BIAcore SPR, Fab over immobilised human NGF (100 RU). Background: Surface plasmon resonance follows binding to a sensor surface in real time, without labels.
The target is the same in experiment [6]. The description is as above. This is another data set of the same source.

human nerve growth factor (human), sequence (P01138 122-241 limits assumed): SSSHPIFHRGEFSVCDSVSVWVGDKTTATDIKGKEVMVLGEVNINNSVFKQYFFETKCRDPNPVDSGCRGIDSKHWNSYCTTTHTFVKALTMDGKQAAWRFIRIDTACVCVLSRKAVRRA
rat nerve growth factor (rat), sequence (P25427 122-241 limits assumed): as the sequence (P01138 122-241 limits assumed) above, with S3T, I6V, R9M, M37T, D60A, D65E, M92T, G94D, V117A, A120G counted along it

Turning to trkA receptor immunoadhesin (Fc fusion), the IC50 (read off the curve), NGF-dependent survival of E13.5 trigeminal neurons (0.4 ng/ml human NGF, 48 h) in experiment [1] turned out to be 0.07 nM.
The Kd is the constant that tells how readily two partners part at equilibrium. The term koff denotes a measure of how fast the partners let go of each other. The low end stands for slow dissociation, the high end for fast dissociation. The term kon denotes a measure of how fast the partners come together. As to “mouse monoclonal anti-NGF antibody 911 (Fab)”, the Kd in experiment [2] is 10 nM. In experiment [3], this substance yielded an IC50, rat NGF-dependent survival of mouse E13.5 trigeminal neurons (1.5 pM NGF) of 34.6 pM and an IC50, rat NGF-dependent survival of mouse E13.5 trigeminal neurons (15 pM NGF) of 161 pM. In experiment [4], this substance registered an IC50, human NGF-dependent survival of mouse E13.5 trigeminal neurons (1.5 pM NGF) of 63.5 pM; an IC50, human NGF-dependent survival of mouse E13.5 trigeminal neurons (15 pM NGF) of 322 pM; an NGF-elicited survival of E17/18 trigeminal neurons of 20 nM. In experiment [5], this substance showed a Kd of 3.7 nM, an off-rate (koff) of 9e-05 s⁻¹ and a kon of 22000 M⁻¹ s⁻¹. The dissociation rate constant (koff) in experiment [6] came to 8.4e-05 s⁻¹.

Values taken from patent publication US20170088610A1.
